Test results reported in patent US20240124528.

T1: interleukin-17 receptor B (IL-17RB), human, endogenous in pancreatic cancer cells
T1 chain: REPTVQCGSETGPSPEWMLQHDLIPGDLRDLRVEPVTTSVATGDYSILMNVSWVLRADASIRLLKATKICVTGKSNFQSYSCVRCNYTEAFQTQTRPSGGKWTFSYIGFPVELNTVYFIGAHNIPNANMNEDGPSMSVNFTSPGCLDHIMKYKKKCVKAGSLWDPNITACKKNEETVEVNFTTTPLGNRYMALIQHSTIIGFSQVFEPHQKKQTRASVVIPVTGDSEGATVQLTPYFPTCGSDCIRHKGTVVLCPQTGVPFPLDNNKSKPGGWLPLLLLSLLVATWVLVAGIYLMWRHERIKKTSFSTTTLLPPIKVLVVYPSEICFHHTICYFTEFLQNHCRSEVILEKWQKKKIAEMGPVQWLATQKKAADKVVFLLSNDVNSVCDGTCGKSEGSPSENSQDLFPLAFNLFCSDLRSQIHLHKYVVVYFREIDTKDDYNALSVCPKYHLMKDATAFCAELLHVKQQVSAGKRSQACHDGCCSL

T2: IL-17RB ΔV403˜S416 (Del-3), HA-tagged
T2 chain: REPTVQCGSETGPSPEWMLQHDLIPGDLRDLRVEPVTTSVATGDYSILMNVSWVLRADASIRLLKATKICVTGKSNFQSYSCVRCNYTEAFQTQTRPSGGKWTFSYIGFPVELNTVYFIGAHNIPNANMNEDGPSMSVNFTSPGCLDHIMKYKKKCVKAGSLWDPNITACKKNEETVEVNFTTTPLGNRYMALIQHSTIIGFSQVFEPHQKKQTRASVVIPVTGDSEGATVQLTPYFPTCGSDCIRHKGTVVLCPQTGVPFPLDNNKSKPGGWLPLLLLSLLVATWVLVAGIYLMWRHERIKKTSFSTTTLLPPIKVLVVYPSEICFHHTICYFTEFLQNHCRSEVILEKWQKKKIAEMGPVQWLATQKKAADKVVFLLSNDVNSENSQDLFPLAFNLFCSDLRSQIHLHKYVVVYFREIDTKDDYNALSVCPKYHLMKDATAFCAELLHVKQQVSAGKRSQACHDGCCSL

T3: IL-17RB-Flag (Flag-tagged IL-17RB, wild type)
T3 chain: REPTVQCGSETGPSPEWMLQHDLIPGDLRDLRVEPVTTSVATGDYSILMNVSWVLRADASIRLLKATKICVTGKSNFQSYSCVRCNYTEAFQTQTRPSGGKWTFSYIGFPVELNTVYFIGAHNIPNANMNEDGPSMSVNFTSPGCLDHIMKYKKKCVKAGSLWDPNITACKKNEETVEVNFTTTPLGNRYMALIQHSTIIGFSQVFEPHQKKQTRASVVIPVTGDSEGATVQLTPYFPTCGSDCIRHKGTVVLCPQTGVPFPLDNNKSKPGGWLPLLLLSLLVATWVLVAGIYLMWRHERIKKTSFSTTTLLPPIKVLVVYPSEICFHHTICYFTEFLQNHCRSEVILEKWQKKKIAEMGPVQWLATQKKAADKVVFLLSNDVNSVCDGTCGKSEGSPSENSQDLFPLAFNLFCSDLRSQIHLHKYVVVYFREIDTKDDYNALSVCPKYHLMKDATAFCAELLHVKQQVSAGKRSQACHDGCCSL


Experiments:
[1] = target: T1, interleukin-17 receptor B (IL-17RB), …
[2] = target: T2, IL-17RB ΔV403˜S416 (Del-3), HA-tagged
[3] = target: T3, IL-17RB-Flag (Flag-tagged IL-17RB, wild …)

Row | Protein | IL-17RB phosphorylation at Y447 (immunoblot after MLK4 knockdown or knockout, FIG. 5A) [1] | Y447 phosphorylation of IL-17RB (immunoblot with anti-P-Y447, FIG. 5D) [2] | in vitro ubiquitination assay with recombinant E1, E2 and ubiquitin (FIG. 18D) [3]
1 | mixed-lineage kinase 4 (MLK4), endogenous (protein) MALRGAAGATDTPVSSAGGAPGGSASSSSTSSGGSASAGAGLWAALYDYEARGEDELSLRRGQLVEVLSQDAAVSGDEGWWAGQVQRRLGIFPANYVAPCRPAASPAPPPSRPSSPVHVAFERLELKELIGAGGFGQVYRATWQGQEVAVKAARQDPEQDAAAAAESVRREARLFAMLRHPNIIELRGVCLQQPHLCLVLEFARGGALNRALAAANAAPDPRAPGPRRARRIPPHVLVNWAVQIARGMLYLHEEAFVPILHRDLKSSNILLLEKIEHDDICNKTLKITDFGLAREWHRTTKMSTAGTYAWMAPEVIKSSLFSKGSDIWSYGVLLWELLTGEVPYRGIDGLAVAYGVAVNKLTLPIPSTCPEPFAKLMKECWQQDPHIRPSFALILEQLTAIEGAVMTEMPQESFHSMQDDWKLEIQQMFDELRTKEKELRSREEELTRAALQQKSQEELLKRREQQLAEREIDVLERELNILIFQLNQEKPKVKKRKGKFKRSRLKLKDGHRISLPSDFQHKITVQASPNLDKRRSLNSSSSSPPSSPTMMPRLRAIQLTSDESNKTWGRNTVFRQEEFEDVKRNFKKKGCTWGPNSIQMKDRTDCKERIRPLSDGNSPWSTILIKNQKTMPLASLFVDQPGSCEEPKLSPDGLEHRKPKQIKLPSQAYIDLPLGKDAQRENPAEAESWEEAASANAATVSIEMTPTNSLSRSPQRKKTESALYGCTVLLASVALGLDLRELHKAQAAEEPLPKEEKKKREGIFQRASKSRRSASPPTSLPSTCGEASSPPSLPLSSALGILSTPSFSTKCLLQMDSEDPLVDSAPVTCDSEMLTPDFCPTAPGSGREPALMPRLDTDCSVSRNLPSSFLQQTCGNVPYCASSKHRPSHHRRTMSDGNPTPTGATIISATGASALPLCPSPAPHSHLPREVSPKKHSTVHIVPQRRPASLRSRSDLPQAYPQTAVSQLAQTACVVGRPGPHPTQFLAAKERTKSHVPSLLDADVEGQSRDYTVPLCRMRSKTSRPSIYELEKEFLS | either knockdown (left) or knockout (right) of MLK4 nearly completely abolished IL-17RB phosphorylation at Y447 | Del-3 failed to bind to MLK4 and phosphorylate Y447 | 
2 | HA-TRIM56 (TRIM56-HA, HA-tagged tripartite-motif 56) (protein) MVSHGSSPSLLEALSSDFLACKICLEQLRAPKTLPCLHTYCQDCLAQLADGGRVRCPECRETVPVPPEGVASFKTNFFVNGLLDLVKARACGDLRAGKPACALCPLVGGTSTGGPATARCLDCADDLCQACADGHRCTRQTHTHRVVDLVGYRAGWYDEEARERQAAQCPQHPGEALRFLCQPCSQLLCRECRLDPHLDHPCLPLAEAVRARRPGLEGLLAGVDNNLVELEAARRVEKEALARLREQAARVGTQVEEAAEGVLRALLAQKQEVLGQLRAHVEAAEEAARERLAELEGREQVARAAAAFARRVLSLGREAEILSLEGAIAQRLRQLQGCPWAPGPAPCLLPQLELHPGLLDKNCHLLRLSFEEQQPQKDGGKDGAGTQGGEESQSRREDEPKTERQGGVQPQAGDGAQTPKEEKAQTTREEGAQTLEEDRAQTPHEDGGPQPHRGGRPNKKKKFKGRLKSISREPSPALGPNLDGSGLLPRPIFYCSFPTRMPGDKRSPRITGLCPFGPREILVADEQNRALKRFSLNGDYKGTVPVPEGCSPCSVAALQSAVAFSASARLYLINPNGEVQWRRALSLSQASHAVAALPSGDRVAVSVAGHVEVYNMEGSLATRFIPGGKASRGLRALVFLTTSPQGHFVGSDWQQNSVVICDGLGQVVGEYKGPGLHGCQPGSVSVDKKGYIFLTLREVNKVVILDPKGSLLGDFLTAYHGLEKPRVTTMVDGRYLVVSLSNGTIHIFRVRSPDS |  |  | purified TRIM56 could ubiquitinate IL-17RB at K470 in vitro
